Laboratory results from the RNAGym collection of RNA variant scans (doi:10.1073/pnas.2313332121).
Fewer inactive variants are shown than the library holds.

B1: TPR 5TU (parent)
chain: GGAUCUUCUCGAUCUAACAAAAAAGACAAAUCUGCCACAAAGCUUGAGAGCAUCUUCGGAUGCAGAGGCGGCAGCCUUCGGUGGCGCGAUAGCGCCAACGUUCUCAACUAUGACACGCAAAACGCGUGCUCCGUUGAAUGGAGUUUAUCAUG

Variants of: B1
Experiment: polymerase ribozyme fitness, log enrichment relative to wild type (log ratio); higher = more active; in vitro selection for triplet polymerase activity
Outline: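 Each subunit of a heterodimeric triplet polymerase ribozyme was represented by a PCR-built, transcribed mutant library that underwent triplicate single-round in vitro selection with frozen incubation at −7 °C. Extended constructs were recovered by gel excision, streptavidin-bead capture and RT-PCR, and Illumina sequencing of input and output libraries kept genotypes with ≥10 input reads and ≥1 read per output. Fitness is the logarithm of genotype enrichment relative to wild-type enrichment, from inverse-variance-weighted replicate averages, with a logarithm base of 2.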

Variant | polymerase ribozyme fitness (log ratio)
A3U U13C A41U C76U C123U | -2.89
A21G G42A G50C C93G G136U | ≤ -4.2
C63U C85U C95U C149U | -1.91
A12U A47G C118G | -1.11
C87U C96A | -1.2
C93U C114U | -2.54
C14G A39G A49U U56A G81U | ≤ -4.2
G59C C93G A97U U127C A137G | ≤ -4.2
A30C C75G U78G C95G | ≤ -4.2
G11C C125G A142C | ≤ -4.2
A23G C87U U127C | -3.81
A39G U55G G83C G88C G100C G140U G141A U145G | ≤ -4.2
C36U U56A C76U G86A A115C | -3.51
U13A G74C C93U G124A | ≤ -4.2
C5G C32A C76A U109G G141C | ≤ -4.2
A40U C63A C72A C76A C103G | ≤ -4.2
A23G A40C G141C | -3.82
U9G U13G A22C A28U A41C C76U G92A U148A | ≤ -4.2
C51A U61A C95U | -2.06
A29G G50A G67U C75G C85A C123G C125G C132U A142C | ≤ -4.2
C10U U55G | -3.19
G48C G59C G92U C99G A106U | ≤ -4.2
U53G G74A C114G | ≤ -4.2
A26U G84A C118A | -3.09

Variant | polymerase ribozyme fitness (log ratio)
C27G A39G G83A G143U | ≤ -4.2
U6A C57G C96U G141C | -0.945
A40U G50U A60C A73G C85U U151G | ≤ -4.2
C85A C87U U101G G136U | ≤ -4.2
A12C C43U A52C G84U C93G C132G | ≤ -4.2
U4G A41C A137C | ≤ -4.2
U56A A73C G84U U127C | ≤ -4.2
C54G A73G C79A U82G C87U A122U G141C | ≤ -4.2
C93U C149A | -4.05
A3G A20U C36A C87G C129A U139C U146G | ≤ -4.2
G83A G88U U111G U135A | ≤ -4.2
U55G G68U | -3.91
A20C A39C A40G G84U G88U C93A C96A | ≤ -4.2
G70U C131U A137G | -4.05
C38U U82A U144A C149G | ≤ -4.2
A23C U44C U55G C57A C93U U145A | ≤ -4.2
A49U U55C U56A A73U C93U G117C | ≤ -4.2
A3G A22U A40U U44C C96G C116U U134C | ≤ -4.2
A39G A41G A73G G86C G92U | ≤ -4.2
A73C C95U | -2.49
A26G U44G A47C A49C C72G C76G A91C C103G C105G | ≤ -4.2
C72U A73C A98G C118A G124C U135C U139A | ≤ -4.2
C36U C93U C96G C114G C116A A138C U139G U148C G152A | -4.1
A23G C35U C51U C93G A121G A122U | ≤ -4.2

Variant | polymerase ribozyme fitness (log ratio)
A52G C87U | -1.3
G50C A98U U101A | ≤ -4.2
G84A G92C | -3.25
C69U G83A | -3.04
C93U G128C | -3.31
G86A U90C U102C A137G | ≤ -4.2
G11C C35G A52U C63A G94A C131U | ≤ -4.2
G11U A16C A24G G58C C87A C99U | ≤ -4.2
A52C C95U C99U | -3.18
G68C C96G U139A | ≤ -4.2
A21U G50C C54U C63U G94A | -0.0103
U56G G59A | -1.14
A26U A73U A91U C96G A137C | ≤ -4.2
C10A A23G C32A C38U G46U G59A A60G A97G | ≤ -4.2
C14G G94C | -2.23
U9G G58A C75U G83U C95A C131A | ≤ -4.2
U31G G71U | ≤ -4.2
A30U C54A U55G G86C C105A A119G G136U A142U | ≤ -4.2
A12C C87U A115C | -1.97
C75G U78G A115G | ≤ -4.2
U31C G83C U111C G152A | -3.66
C8G U13A U33G G71A G74A C87G C96A C105A | ≤ -4.2
U55A G126A | -1.02
A37C A40G C57U A73C C93U | ≤ -4.2

Variant | polymerase ribozyme fitness (log ratio)
A64G | -2.27
C27A A40G U55A G83C | ≤ -4.2
G11C G50A U56A G83U C93A U127C U135C | ≤ -4.2
C95U A97U C99U G133U A150G | ≤ -4.2
C10A C14G A19U A30C C93U | ≤ -4.2
C14A A40U C76U U78G G84A C103G G128A G141C | ≤ -4.2
G34A C93A | -3.6
A37C C72G C79A | ≤ -4.2
C96A U134C A138G G141C | -4.07
A19G C96U C123U | -0.681
C10U A40G G50U C79G C99U C108G G117A | ≤ -4.2
C32G U53C C76A | -4.09
A24U G83U C85G G126U | ≤ -4.2
G83A A150U | 0.356
C5U U45A A47C G62U C69U | ≤ -4.2
G83C A113C | -3.35
C75G C96U | -3.61
G50A A73U C87A U144A | ≤ -4.2
C38A C87U A107U | -4.17
G65C C87G U102A | ≤ -4.2
A17U A21G C27G A28U C85A C87U C95G | ≤ -4.2
A28C G84A C87G C96G A121U | ≤ -4.2
C5U A22U C85A U135A | -0.0168
C51U G84A G117C U135A | -0.541

Variant | polymerase ribozyme fitness (log ratio)
A26G A73U C85A U151G | ≤ -4.2
C8G A28G U61A U104A A110U A120G A138C | ≤ -4.2
A22C C125U | -0.469
C51A G94C A107U | ≤ -4.2
A24U A121U G124U | -1.16
C85U U134C | -1.76
C76G G94U C96G U111A | ≤ -4.2
A49C G141U | -3.13
U53A C99U | -2.58
C51U U53C C63U G74C G86C A89U A113U | ≤ -4.2
C10U A12C G34A G92C | -4.16
A16U U56A A60U C93U G141U | -3.72
C57G G94C C114G C118A | ≤ -4.2
G25U G48C A52G C54G C57A A60G C96G U101G | ≤ -4.2
C14A U61G U111A A121C | ≤ -4.2
C27G G67C C85A | ≤ -4.2
G50U C57A C76A A122U C131G | ≤ -4.2
A98G U127C | -3.01
U13C | -0.269
U6G C38U U44A G81C A120C G140U | ≤ -4.2
A24C G67C C87U A122U A142G | ≤ -4.2
C5U A20C G59A A60G C69A A98G | -2.12
A3C A47C G59C G86A | -3.89
C5G C54A G65C A66G C85U | ≤ -4.2

Variant | polymerase ribozyme fitness (log ratio)
A20C A39U G42A A91U G133U | ≤ -4.2
A23C A39U G46U U90A C96A C99U C114G G141C | ≤ -4.2
A17G C69G C85G A107C A122G | ≤ -4.2
U15G A22G U56G C96U A121U | -0.722
U102G C116G | -1.67
C85A C103A A147G | ≤ -4.2
A40C U56A G59A C87A A89C G112U A119U G143A | ≤ -4.2
C38A G70A C85G U127C | ≤ -4.2
A12C A113G A119U U145A | -3.25
G50U C93G | -3.35
U102C C114G | -4.11
C38U C85U A107U C125G A147C | ≤ -4.2
G42C A49U C63U | -4.12
U44A U90G C93U G143A U151G | ≤ -4.2
A12C C54U | -0.207
C76U G86A | -0.246
G46U U61A G92U C96A A137G | ≤ -4.2
G58A C99U | -0.207
A23C G133A U135C G141A A150C | ≤ -4.2
G48A A73G C87G A89U C96A G136A | ≤ -4.2
U55C G70A | -3.5
A12G A19C A40G U45C G92A G141A | ≤ -4.2
A19G C57A G65A | -2.01
G88A C96A C103U | ≤ -4.2

Variant | polymerase ribozyme fitness (log ratio)
C125A U146G | -0.126
U53C A150G | -1.01
A39U A97U A119C | -3.36
C8A C114G A142C | ≤ -4.2
A26U A41C U44A G59A G126U G128A A137G | ≤ -4.2
A24U G46C A60C U102G | ≤ -4.2
U31C C85G A98G | -1.26
A20C A37C A40C G58C C95U | -4.12
C8G A52G | -3.17
U130G | -2.99
U33G G50C U56A U134G U145C | ≤ -4.2
C14G A29U A30G C96U | ≤ -4.2
C8U U13A A40C U44G C93G | ≤ -4.2
G50C C87G | ≤ -4.2
G65A C76A A122U | -4.06
A19G G48C G86A C103U C108G | ≤ -4.2
G83A A115U | -1.25
A41C C125G | -0.815
A49G A52C G86C | -3.61
C14A G50A C85G C96A | ≤ -4.2
A37G U61G C93U A115C | -4.18
A19U A24U A30U U55A C93G C103G A106C C132G U146C | ≤ -4.2
A12C A64U G68C G84U A106C U145G | ≤ -4.2
